Values of other authors, collected in publication PMC4117426.
Where two headings read alike, the source gives them in different places.

Assays:
[1] = target: FtsZ tail peptide C-terminal tail (Escherichia coli) (UniProt P0A9A6)
[2] = target: FtsZ tail peptide C-terminal tail (Escherichia coli) (UniProt P0A9A6); remark: listed apart in the source

FtsA, sequence (P0ABH0 whole entry): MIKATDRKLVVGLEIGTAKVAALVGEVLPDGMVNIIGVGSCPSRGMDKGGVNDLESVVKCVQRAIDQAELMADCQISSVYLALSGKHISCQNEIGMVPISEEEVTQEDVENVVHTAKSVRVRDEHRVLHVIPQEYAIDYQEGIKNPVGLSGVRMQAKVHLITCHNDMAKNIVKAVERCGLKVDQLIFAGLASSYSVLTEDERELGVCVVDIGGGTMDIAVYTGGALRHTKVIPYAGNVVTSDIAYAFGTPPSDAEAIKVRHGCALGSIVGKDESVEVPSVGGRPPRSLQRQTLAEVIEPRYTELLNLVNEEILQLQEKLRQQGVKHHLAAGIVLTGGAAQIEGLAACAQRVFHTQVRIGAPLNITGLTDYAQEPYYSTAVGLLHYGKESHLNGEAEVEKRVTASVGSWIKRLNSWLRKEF

Kd [1] [µM] | Kd [2] [µM] | Substance
50 | – | FtsA (from UniProt P0ABH0)
– | 20 | ZipA (from UniProt P77173)
